The supplement of paper PMC10567573

B1: PPEF2 (parent)
chain: AFKAAALIQRWYRRYVARLEMRRR
B2: C8orf76 (parent)
chain: LYLQLAICSSLQNLEKTIFCLQKL

Variants of: B1
Experiment: protein stability index of a GFP-peptide fusion (GPS, HEK-293T) (PSI 1-6); higher = more stable
Conditions: c terminus: a fixed tail appended
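Further: lentivirally expressed fusions sorted by FACS into six bins by GFP to DsRed ratio, PSI derived from sequencing read proportions per bin multiplied by bin number.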

Protein stability index of substitutions, site by site:
L7: Q 4.96; I 4.77; R 5.03; S 2.93; G 2.33; N 2.64; T 4.39; M 2.25; F 3.21; A 4.83
A6: K 2.83; V 4.97; L 2.5; Q 3.88; E 3.81; Y 1.75; F 2.77; C 4.25; P 1.95; D 3.14; T 4.02
A5: T 2.55; Q 1.85; I 2.4; G 2.94; F 1.98; H 2.67; E 4.4; P 2.08; R 2.39; N 2.11
A4: K 3.27; M 2.25; R 3.46; S 2.13; C 3.15; V 2.55; F 3.17; P 2.38; G 3.69
A1: F 2.62; R 3.66; W 1.77; N 3.6; Q 3.52; P 3.44; T 3.4; H 2.59; I 3.77; C 3.54; D 2.36; V 3.96; E 4.09; G 2.17; L 4.05; M 3.01
I8: V 3.41; H 2.16; T 2.37; C 3.52; Y 2.19; M 1.94; N 2.98; A 2.38; K 3.15; F 2.29; L 3.02; D 3.02; R 3.09; S 4.29
R10: N 3.6; T 2.1; S 2.27; D 1.67; A 2.4; L 1.71; H 2.51; F 2.88; G 1.88
W11: G 2.55; A 4.29; L 3.79; E 2.46; I 2.81; S 4.12; H 2.28; M 2.84; P 2.62; Y 3.91; K 5.21; F 3.99; D 2.79; N 4.17; Q 2.57
Y12: E 3.14; A 2.35; C 2.14
Q9: A 3.25; Y 2.23; W 2.98; H 2.16; K 3.59; E 1.59; R 3.48; V 2.99; L 3.44; M 2.37; I 2.27; N 2.1; T 3.39; S 2.54; F 2.85; C 2.71; D 1.86
K3: F 2.38; L 1.75; E 3.71; Y 2.87; C 1.86; D 2.27; I 2.66; R 3.84; S 4.09
F2: A 3.87; W 3.79; G 2.87; L 3.99; E 4.95; K 3.04; Y 3.46; P 3.78; N 3.3; R 3.76; M 3.8; D 3.53

Variants of: B2
Experiment: as above
Conditions: c terminus: a fixed tail appended

Protein stability index, by site and new letter:
S9: L 2.28; W 1.02; G 3.03; N 4.23; V 3.45; A 3.6; M 4.15; K 1.75; I 2.34; D 2.72
L24: E 1.75; P 4.07; F 3.39; D 4.2; A 2.13; C 3.89; I 2.35; K 3.43; S 1.49; W 2.79; Q 3.56
E15: G 1.69; V 3.25; P 3.75; D 1.75; C 2.82; M 3.11; L 4.03; Q 3.27; I 2.49; R 2.63; F 4.35; W 3.01; T 1.99
K23: M 1.58; D 2.02; S 1.89; Q 4.24; I 2.72; F 2.92; Y 3.53; G 3.17; P 2.54; R 3.49; T 2.15; L 2.27; W 3.62; N 2.11
C8: W 2.12; P 2.57; S 3.03; M 4.39; Y 2.62; R 3.1; T 2.71; L 2.92; H 2.52; G 3.48; I 1.69; N 3.14; V 3.6
L21: D 2.09; F 3.62; A 2.77; Y 3.14; H 2.76; G 3.2; P 3.85; C 2.88; S 2.59; R 2.08; N 2.25; E 1.42
K16: T 4.26; Y 2.26; P 2.32; N 2.47; S 2.67; Q 3.17; I 2.44; C 4.77
I18: K 2.22; Q 2.44; H 2.6; M 1.11; F 2.57; P 4.2; N 5.27; R 2.41; E 1.79; W 3.03; L 2.46; Y 2.94
L11: F 1.39; Q 2.35; W 1.77; T 1.82; E 4.55; K 3.11; I 2.28; P 5.02; M 3.61; D 2.17; C 1.8
F19: N 3.32; W 2.24; E 1.81; C 2.27; A 2.89; V 2; M 3.62; I 2.8; Y 4.28; T 1.71; K 3.04; G 2.83; L 3.21
T17: W 4.22; C 2.55; V 2.84; F 3.63; M 3.56; L 4; H 2.34; N 2.46; D 2.31; P 1.98; Q 3.45; Y 3.47; G 4.96
C20: G 3.1; A 2.85; R 3.09; H 3.83; M 1.94; E 1.86; Y 2.18; V 3.44; T 2.13; F 2.83; I 2.15; D 2.93; K 2.36; W 2.66; P 1.88
Q22: D 2.46; M 3.12; N 2.31; P 2.69; I 1.46; S 1.58; K 3.39; C 2.56; W 1.93; T 3.32; F 3.5; V 2.58
Q12: W 3.78; E 2.29; N 2.07; K 3.08; A 2.38; G 2.58; M 3.9; F 2.75; T 4.52; H 3.42; P 2.52; V 2.3
N13: D 3.49; M 3.43; S 3.71; R 3.01; I 1.93; P 3.23; Y 2.21; C 2.25; F 2.51; A 2.98
S10: N 3.36; F 4.67; H 3.71; K 2.11; A 2.36; P 2.52; T 2.38; L 2.99; V 3.44
L14: H 2.93; K 2.9; M 2.22; A 2.33; I 2.96; D 3.85; T 1.65; G 2.24; N 2.84; P 2.32; E 1.9
